Source: the DeepSol protein solubility set

Assay: soluble on expression in E. coli; label from the status in PepcDB or PDB records

Sequence | soluble on expression in E. coli
MSLAEASTVETEFAARVQEFYHDQSDPIQLVVAFKALCAVKALLAAANLEEHGAKSSYFQEEFENWDLETKLWHLVEVLYLYRLAENEEVIAENQYSSISVLQENVLRQNPKLKELLIILGWLQTNSKGVDVPGSLSNTSKWSNTRQALANKDLNVLTTHGHTGETDTKLQNIDPDAPIRQACPVMAEDDLRDSQVFRTIYQLILSGQLQEAIELASSTGNHTLALILLGGTQDFIDPVLDKDFCETTMTDLIVPNKPSGAKHKLLWKQAVFKLSHQLGINKYERLIYDYLSGGDISGGLEVVGDSWENLLIIYLNKICLHVLLNALNSNESTTSIPAPPAESIDQVLNLISKGSNGAAQQSKHPLRIVMGSVMISEIGALISGVLKSLNNNFTTQKVWEEDYLVRVMAHLGLFAHAVGSQVSANDLTQLLTLYVQRLSARGFTDLVPLYLSFIPDDSDAREYYSKFLSSITDPSERTKQLQLVRKLGIDSNGDEERMANVLRRTVERVMADTEAEGHHHHHH | soluble
GPGSMSVEASRPTRSQDPLPAAVIREFLEMHQQCNDQSLGQGESPTGTEKDGTRAAEARVVSAPLRVEVETTHGYVYEGRLVAMDEFYNVTLTEATKRRERLCDVERSLLTMHGFPAPAASPSTRREYVGSVLVRSGNLLMIRFPQGEGNATRVLHGAFKSMVMKVRRQINLERQKNRMERRRRKQLPVKPQSLVGKAGDPPKRTKAKKE | soluble
MGVLTTFISQKALVGGYDNTIEPGVVILSGATITCNVSIGQGTFINKSTVISHDVRIGRYCEVSPGAKVLGRAIIGDRTEIGANAVILPDVIVGADCKIGAGAVVTRNIDSHTTVAGVPARSITKSSNNAFKLKSKIRNLLYHIRIADFRKLREYNHYVFGLEHHHHHH | not soluble
MAIKSPPTLIPLSHLSGEELQAHLRFNRVTDEKGRYLPFDELQYRIKKGENVDVAWTLTRLARNAAIQRINYCNEAGEQAGFNITPVIAEACELVDKRATALALKDQTERLRGAGAELSQLRLEEPITSSQLEGANTTTLVARKMLETGRSPRTEDEHMIAGNARLMAEIPHLLAEPLTPALIRQLHAIGMGGINDAKYRPGEFRETDDVVIADYDGNIVHQPPAAALLPERLEKVCQWLNSHEGYIHPLVRACILHFMLAHEHPFRDGNGRTSRALFYWYMLKSGYDVFKYISISRLLHAAPVKYAASYQYTESDGMDLTYFLEYQAGVIKRALQNWQQHIDEITQRSAKLDSVLFSSGVLKRLNPRQVTLLNVMLANPGKEYTVAEISASLGVSDNTVRADLRTIVKEGFAQEKKINDQQAVYFAHYPL | not soluble
MAPKCWSNLPSDVKREVLEHGDCQQWFNVRLCSRADMNLVDSLKLRIPFLKIQISNTTFSIIIVESPSAILRIDLHQKSGGNAEFSVEIFKNSDLELGNLIKTIENTTLDAEISNLLEKSIFHRKIDIATCQIQADGLQAENPVLAMIHAKFTENAPKKLIFSGKSMEENRFLAKFFENLNIDFVFRSWRKDLSREWGEGMNHLRIKIFEVSKWTTLLGDFEHFTAYDEIEPVMYMARILSRPMKRSHWFPGFHVPVAERLFRQIFRQEMFEKFENHSIRKSPINLKLWIFVKFTKCGISIFVGDPKDFNERDGTCDLEWMCPNCAPKTMENWFFRETIGKLHF | not soluble
MDGTMEDSEAVQRATALIEQRLAQEEENEKLRGDTRQKLPMDLLVLEDEKHHGAQSAALQKVKGQERVRKTSLDLRREIIDVGGIQNLIELRKKRKQKKRDALAASHEPPPEPEEITGPVDEETFLKAAVEGKMKVIEKFLADGGSADTCDQFRRTALHRASLEGHMEILEKLLDNGATVDFQDRLDCTAMHWACRGGHLEVVKLLQSHGADTNVRDKLLSTPLHVAVRTGQVEIVEHFLSLGLEINARDREGDTALHDAVRLNRYKIIKLLLLHGADMMTKNLAGKTPTDLVQLWQADTRHALEHPEPGAEHNGLEGPNDSGRETPQPVPAQLEHHHHHH | not soluble
MTEAIHCIGCGAIIQTENPHELGYTPKTAFEKGMETGEVYCQRCFRLRHYNDIQDVQLTDDDFLRLLNGLGTEDALIVNVVDIFDFNGSLIPGLHRFIGDNPVLLVGNKVDILPKSLKKPKMVQWMRERAHEAGLRPVDVLLTSGKKPQEMQELLDTIEKYREGRDVYVVGVTNVGKSTLINQIIQQTVGVQDVITTSQFPGTTLDKIEIPLDDGHFLIDTPGIIHRHQMAHYLGKKDLKIIAPQKEIKPKVYQLNAEQTLFLGGLARFDYVQGAKSSFIAYVSNDLKLHRTKTATADAFYEKHVGGLLQPPRADEVAEFPELVRFEFSVKEKTDIVFAGLGWITVTEPGVVAGWAPKGVDVLRRKALILEHHHHHH | not soluble
MGSDKIHHHHHHMFDWNDVRFFLALQRNGKLLGAARQMGTTHATVARHIAALEKVLGQPLFVQQADGYSLTAAGRQLLPLAESLENTASQMLDSGSKGHAEVSGVVRLGAPEGLGALFLARHMPALMARYPELEIDLVAVPRFVSVTSREVDIAIALERPQANMVVTRKLTDYCLGLYATQAYLAAHPPIREREDLNGHAILAYVDDLLFTRELMYHHGLCRHPSMPLRSTSVVAQREAALADGGIAVLPYYTTYDDPRLTQILPELRIIRSYWISARSNIRRTLRYRVVWDYVVELCQNMQWLLLQEEQNRSIETA | not soluble
MGSDKIHHHHHHNKIPTTMAFRTVTDVDNAVNGLYDLMSGSGYYGAAMFAYGDMKGDDMQSSEESGVCNTCYMFNHRPNSLNAGSLWGRPFYILREAWNILNAIAEGKIESGDEKKLNALKGETMAVIALCQFDLTRCFGYPYTKDKGASLGAPLIDHLVGTYENPPRSTVAQAYDFIIETLEEAVTLMSEEKNNGRMNKYAARALLARIYLYHDDNRKAFDLADQLIKDADTSGSYALYPHEKYVAAWSVEAKFGSESFFEIANSVDDTPGRDSWGYLLNWYGYQKGFVTQKYAEQMLADPGDVRGHLLEENKYAGKTVWWLYKLRGTDLKTAPLECNNVVLRLSEVYLIAAEAGCKLGGDAAVQGLGYLNEIVKRGNPDNEVTMADYTLDRVLDERSKELVGEGHRFFDLLRNGKTIVRKGGYHLPSVDEEVDWDFYKCVLPIPEDQFIFSPEMEQNPGYPKN | not soluble
MGHHHHHHSHMSGTEEAILGGRDSHPAAGGGSVLCFGQCQYTAEEYQAIQKALRQRLGPEYISSRMAGGGQKVCYIEGHRVINLANEMFGYNGWAHSITQQNVDFVDLNNGKFYVGVCAFVRVQLKDGSYHEDVGYGVSEGLKSKALSLEKARKEAVTDGLKRALRLPLLGVSGRILYSLFSVHSVMCAGGLPTPTASAQTAPSSPCSSAVLRYAQEFWECTWKLYSGQRLPEITK | not soluble
MSLEKKVVKFFTVDNMEKEEAYLNEMAQNGWFFQKYKSFRYHFKQGEPAKYSYAIDFKENEGDEDAYKTLFEDAGWETVFSYPVLNGNWMYFRKAVAPGETEEAIFTDETSLIQLYKNIRKREGHHHHHH | soluble
MSSEEDKSVEQPQPPPPPPEEPGAPAPSPAAADKRPRGRPRKDGASPFQRARKKPRSRGKTAVEDEDSMDGLETTETETIVETAEIKEQSAEEDAEAEVDNSKQLIPTLQRSVSEESANSLVSVGVEAKISEQLCAFCYCGEKSSLGQGDLKQFRITPGFILPWRNQPSNKKDIDDNSNGTYEKMQNSAPRKQRGQRKERSPQQNIVSCVSVSTQTASDDQAGKLWDELSLVGLPDAIDIQALFDSTGTCWAHHRCVEWSLGVCQMEEPLLVNVDKAVVSGSTERCAFCKHLGATIKCCEEKCTQMYHYPCAAGAGTFQDFSHIFLLCPEHIDQAPERSKEDANCAVCDSPGDLLDQFFCTTCGQHYHGMCLDIAVTPLKRAGWQCPECKVCQNCKQSGEDSKMLVCDTCDKGYHTFCLQPVMKSVPTNGWKCKNCRICIECGTRSSSQWHHNCLICDNCYQQQDNLCPFCGKCYHPELQKDMLHCNMCKR | not soluble
MADDGVNPKAFPLADTNLSQKLMDLVQQAMNYKQLKKGANEATKTLNRGISEIIVMAADAEPLEILLHLPLLCEDKNVPYVFVRSKAALGRACGVTRPVIAASITQNEGSQLKSQIQKIKEDVEKLLI | not soluble
MGSDKIHHHHHHMLQFIPVFDGNTIAVRASGKLTLEDFQQFFPQLETQIKRLGKISLLFEFDNFSGWDLDAAIDDIKFGMKHLSDFERIAMVGDKSWEHWMALIAKPFLISSEVRYFNRENLQQAWDWLREKQEFEKAVEQLQPYQNIVVAVDFSLYSKHACKRAIELANYYQASLTLLNVVPEVLAYTLYGDPVGYNVVDLDIIKDQNKKNIDAAQFQMKAFVNDLDTNFPIETKVICGEINYGVVSFLEAQHIDLAIFGAKKKKGINKLLGSVPHYVQNHSRCEILIVPVQGPVF | not soluble
MSRRRHSDENDGGQPHKRRKTSDANETEDHLESLICKVGEKSACSLESNLEGLAGVLEADLPNYKSKILRLLCTVARLLPEKLTIYTTLVGLLNARNYNFGGEFVEAMIRQLKESLKANNYNEAVYLVRFLSDLVNCHVIAAPSMVAMFENFVSVTQEEDVPQVRRDWYVYAFLSSLPWVGKELYEKKDAEMDRIFANTESYLKRRQKTHVPMLQVWTADKPHPQEEYLDCLWAQIQKLKKDRWQERHILRPYLAFDSILCEALQHNLPPFTPPPHTEDSVYPMPRVIFRMFDYTDDPEGPVMPGSHSVERFVIEENLHCIIKSHWKERKTCAAQLVSYPGKNKIPLNYHIVEVIFAELFQLPAPPHIDVMYTTLLIELCKLQPGSLPQVLAQATEMLYMRLDTMNTTCVDRFINWFSHHLSNFQFRWSWEDWSDCLSQDPESPKPKFVREVLEKCMRLSYHQRILDIVPPTFSALCPANPTCIYKYGDESSNSLPGHSVALCLAVAFKSKATNDEIFSILKDVPNPNQDDDDDEGFSFNPLKIEVFVQTLLHLAAKSFSHSFSALAKFHEVFKTLAESDEGKLHVLRVMFEVWRNHPQMIAVLVDKMIRTQIVDCAAVANWIFSSELSRDFTRLFVWEILHSTIRKMNKHVLKIQKELEEAKEKLARQHKRRSDDDDRSSDRKDGVLEEQIERLQEKVESAQSEQKNLFLVIFQRFIMILTEHLVRCETDGTSVLTPWYKNCIERLQQIFLQHHQIIQQYMVTLENLLFTAELDPHILAVFQQFCALQA | soluble
MVFKSKKDKFSEMLMNVSENLKEGAQFFVEYKIKNASDLKEFSMRMKEYESKGDSFIHEIIMELNKAFITPIEREDILQLAMSMDDVLDGLDHSAGLFEMYSITEADEYMIKFVEAINQCAIEIANSVELMSNKKLVDIRTNAIKIKDYESQCDDIRRHAIKNLFSREKDPIKIIQFKEIYEELEEVADSCQSVANVLETIIMKNALEHHHHHH | soluble
MATYLIGDVHGCYDELIALLHKVEFTPGKDTLWLTGDLVARGPGSLDVLRYVKSLGDSVRLVLGNHDLHLLAVFAGISRNKPKDRLTPLLEAPDADELLNWLRRQPLLQIDEEKKLVMAHAGITPQWDLQTAKECARDVEAVLSSDSYPFFLDAMYGDMPNNWSPELRGLGRLRFITNAFTRMRFCFPNGQLDMYSKESPEEAPAPLKPWFAIPGPVAEEYSIAFGHWASLEGKGTPEGIYALDTGCCWGGSLTCLRWEDKQYFVQPSNRHKDLGEGEAVAS | soluble
MTNVLYQHGTLGTLMAGLLEGTATINELLEHGNLGIATLTGSDGEVIFLDGKAYHANEHKEFIELKGDEKVPYASITNFKASKTFPLQQLSQDDVFAQIKNEMLSENLFSAVKIYGTFKHMHVRMMPAQQPPYTRLIDSARRQPEEKRQDIRGAIVGFFTPELFHGVGSAGFHIHFADDERAYGGHVLDFEVDDVVVEIQNFETFQQHFPVNNETFVKAKIDYKDVAEEIREAE | soluble
MRLLTCDCTFMGQKHSGSVSVEKKNQENDGPPTYEIVFGWSQSFENLMKHRAGQKYFAEFLKGEYSDENILFWQACEELKREKNAEKIEEKARIIYEDFISILSPKEVSLDSRVREIVNTNMGRPSASTFDEAQNQIYTLMQRDSYPRFLASNIYKTVMGTFGIKEEAV | not soluble
